# Laboratory results published in the DeepSol protein solubility set.
# Assay: soluble on expression in E. coli; label from the status in PepcDB or PDB records
row,Sequence,soluble on expression in E. coli
1,MADTTILDTTCSSTLAANVEFSHATDSAIGISLKNATITEAEGVPNLKETGYDCVRYMGTCNGGQIYLGRERKKLKDYVAIKKFAIDDVDDYAAIAKESSNLRLMHHPNIIELCECFVYERSIYQITPAMNLGSLFDIVFEYMKWGINEKSAAAITRQLLDALSYLHQRRYIHRDLKPKHILIDSSGNVKLSGFRFMIELNHHLDCVFEFDAHLQNQLYYLAPEVLAQNIHGYTSKSDIYMLGISICEAINGVMPFGELEPLEMLHRKLNGQVPRPVDMISLKDDQKMGLDISHRPQEHLTRRFSKEMHEFIANCLDYDPQQRGSASDLKSSAWLGSKIHKNLGPVDVRQELNLDYAHFDLSLWEQEPLIPMEPDQKYEIVFDYSPIS,not soluble
2,MADWVTGKVTKVQNWTDALFSLTVHAPINPFTAGQFTKLGLEIDGERVQRAYSYVNAPDNPNLEFYLVTVPQGKLSPRLAALKPGDEVQVVSDASGFFVLDEVPDCETLWMLATGTAIGPYLSILQYGQDVARFKNLVLVHAARFAADLSYLPLMLELQQRYEGKLRIQTVVSRENVPGSLTGRVPALIENGELEKAVGLPMDKETSHVMLCGNPQMVRDTQQLLKETRQMTKHLRRRPGHMTAEHYW,not soluble
3,MAEDSNSSESIIVNVTGDDNKSALFGKYDLGKLLGSGAFAKVYQAEDLQNGGESVAIKVVQKKRLKDGLTAHVKREISVMRRLRHPHIVLLSEVLATKTKIYFVMELAKGGELFSRVTSNRFTESLSRKYFRQLISAVRYCHARGVFHRDLKPENLLLDENRDLKVSDFGLSAMKEQIHPDGMLHTLCGTPAYVAPELLLKKGYDGSKADIWSCGVVLFLLNAGYLPFRDPNIMGLYRKIHKAQYKLPDWTSSDLRKLLRRLLEPNPELRITVEEILKDPWFNHGVDPSEIIGIQADDYDLEENGKILNAFDLISSASSSNLSGLFGNFVTPDHCDQFVSDESTAVIMRKVEEVAKQLNLRIAKKKERAIKLEGPHGVANVVVKVRRLTNELVMVEMKNKQRDVGLVWADALRQKLRRLINQPVYKVPDKP,not soluble
4,MAEETPPIVELAEWFQTPPGQYVLAWEQAQFDEAVADIFGYYAWQVGLAEPNLLRANRMPFKAWVGAGVPPPELAQGWQACVAAAPEALPFESQSVDLLVLPHAFECAEAPHLVLREVERVLVPEGRVVISGFNPWSLWGARNLMPGMEAWLPLPLSAQVALPRLKDWFKLLSFEVERGRFGCYAPACRTDKWLRRWRFMERYGQRWWGLGGAVYVVTATKKVAAMRLIGPAWKTRRKRAQAASVVVNRQADDPGRLEHHHHHH,not soluble
5,MAEFASAEFDRMLAEARSMLDAMRSGRSAPSDEEEVKGVGEAADGRVTVTVNSSGLLESVELNPRLLRLPAEEIGEHIVTAVNAALQDFRTKANQAVGAASVDLNALAASMQELQDQSVRQMAQIGQAFNELLTKLDGMR,not soluble
6,MAEKLNFEELNSMQRYSQFAVFRAIPGALGSDRAEIVAQAQSFFDGLETAGKVEVRGIYDLAGCRAEADFMIWWIAEEFEEIQAAFARFRRETVLGQVSEVAWLGNSLHRPAEFNRSHLPSFIMGEIPGDWITVYPFVRSYDWYIMDPQKRRKILAEHGQAARDFPDVRANTVPAFALGDYEWMLAFEAPRLDRIVDLMHKMRYTEARLHVREETPFFTGRRVSEVSELVNVLP,not soluble
7,MAEKRTVRPFAGTERRAKGWIQEAALRMLNNNLHPDVAERPDELIVYGGIGKAARNWECYEAIVDTLLRLENDETLLIQSGKPVAVFRTHPDAPRVLIANSNLVPAWATWDHFHELDKKGLIMYGQMTAGSWIYIGSQGIVQGTYETFAEVARQHFGGTLAGTITLTAGLGGMGGAQPLAVTMNGGVCLAIEVDPARIQRRIDTNYLDTMTDSLDAALEMAKQAKEEKKALSIGLVGNAAEVLPRLVETGFVPDVLTDQTSAHDPLNGYIPAGLTLDEAAELRARDPKQYIARAKQSIAAHVRAMLAMQKQGAVTFDYGNNIRQVAKDEGVDDAFSFPGFVPAYIRPLFCEGKGPFRWVALSGDPEDIYKTDEVILREFSDNERLCHWIRMAQKRIKFQGLPARICWLGYGERAKFGKIINDMVAKGELKAPIVIGRDHLDSGSVASPNRETEGMKDGSDAIADWPILNALLNAVGGASWVSVHHGGGVGMGYSIHAGMVIVADGTKEAEKRLERVLTTDPGLGVIRHADAGYELAIRTAKEKGIDMPMLK,soluble
8,MAEKTYSGFVAIVGKPNVGKSTLLNNLLGVKVAPISPRPQTTRKRLRGILTEGRRQIVFVDTPGLHKPMDALGEFMDQEVYEALADVNAVVWVVDLRHPPTPEDELVARALKPLVGKVPILLVGNKLDAAKYPEEAMKAYHELLPEAEPRMLSALDERQVAELKADLLALMPEGPFFYPEDYAKSDQTFGEWVAEILREEAMKRLWHEVPYAVATKVEEVAERENGVLYIKAILYVERPSQKAIVIGEGGRKIKEIGQATRKQLEALLGKKVYLDLEVKVYPDWRKDPEALRELGYRSSVG,soluble
9,MAELLPLSPVPLYTQLKELLRERILDGTYPSHSRMPSESELGKAFDVSRITVRQALGDLQKEGLIFKIHGKGTFVAKPKAFQNVSTLQGLGESMTQMGYEVINRLRSFRHVPANALVAARLQVEEGSLVTEIRRVRLINREPVSLELTWLPKAVGEKLEKADLVTRDIFLLLENDCGIALGHADLAIDAVLADSDLTQALDVEEGSPIMRIERLTHAADGTPLDFEHLYYRGDAFQYRLRIDRQKGGKA,not soluble
10,MAELNFKAIEEKWQKRWLEAKIFEPNIRDKPKEKKFYITVAFPYLSGHLHVGHARTYTIPDVIARFKRMQGYNVLFPMAWHITGSPIVGIAERIKNRDPKTIWIYRDVYKVPEEILWTFEDPINIVKYFMKAAKETFIRAGFSVDWSREFYTTSLFPPFSKFIEWQFWKLKEKGYIVKGAHRVRWDPVVGTPLGDHDLMEGEDVPILDYIIIKFELRENGEVIYLPAATLRPETVYGVTNMWVNPNATYVKAKVRRKDKEETWIVSKEAAYKLSFQDREIEVIEEFKGEKLIGKYVRNPVSGDEVIILPAEFVDPDNATGVVMSVPAHAPFDHVALEDLKRETEILEKYDIDPRIVENITYISLIKLEGYGDFPAVEEVNKLGIKSQKDKEKLEQATKTIYKAEYHKGIFKVPPYEGKPVQEVKEAIAKEMLEKGIAEIMYEFAEKNVISRFGNRAVIKIIHDQWFIDYGNPEWKEKARKALERMKILPETRRAQFEAIIDWLDKKACARKIGLGTPLPWDPEWVIESLSDSTIYMAYYTISRHINKLRQEGKLDPEKLTPEFFDYIFLEEFSEDKEKELEKKTGIPAEIIHEMKEEFEYWYPLDWRCSGKDLIPNHLTFFIFNHVAIFREEHWPKGIAVNGFGTLEGQKMSKSKGNVLNFIDAIEENGADVVRLYIMSLAEHDSDFDWRRKEVGKLRKQIERFYELISQFAEYEVKGNVELKDIDRWMLHRLNKAIKETTNALEEFRTRTAVQWAFYSIMNDLRWYLRRTEGRDDEAKRYVLRTLADVWVRLMAPFTPHICEELWEKLGGEGFVSLAKWPEPVEEWWNETIEAEEEFIRSVMEDIKEIIEVAKIENAKRAYIYTAEDWKWKVAEVVSEKRDFKSSMEELMKDSEIRKHGKEVAKIVQKLIKERTFDVKRINEEKALREAKEFMEKELGIEIIINPTEDKGGKKKQAMPLKPAIFIE,soluble
11,MAENFVVVDGGVVAPKGFKANGHKDRKYGAALIYSEADAVAAGVFTTNKVYAHPVALSKDTLVNNNVFRAIVANSGNANCFTKGGMEDAELLVKKAAELLKIPENQVLSASTGVIGRKMPMDIISLEVERAFENITMESSNENASKAIMTTDAFPKTVAVEFEVNGKSVRIGGIAKGAGMIAPNMLHATMLGFITTDIEISKEDLTNSLQKATDESFNNAVVDGDMSTNDTVYVLANAQSGVKYTDCKEEFDHALTYVSKELAKMIVSDGEGAKKLIEATVFGAETKEDAKKASMSIVRSLLLKTAVFGADPNWGRIAAAVGYSGAEMDMNNFDIIISDISSEKQAILVKAGEQIADCGTPELKLAEEIMKEDKIKIIVDLKMGSFENTAFGCDLGYDYVKINSEYTTLEHHHHHH,not soluble
12,MAEPVRLGRKRPLPVCPNPLFVRWLTEWRDEAASRGRHTRFVFQKALRSLQRYPLPLRSGKEAKILQHFGDRLCRMLDEKLKQHLASGGD,soluble
13,MAEQRFCVDYAKRGTAGCKKCKEKIVKGVCRIGKVVPNPFSESGGDMKEWYHIKCMFEKLERARATTKKIEDLTELEGWEELEDNEKEQITQHIADLSSKAAGTPKKKAVVQAKLTT,soluble
